# Measurements from patent US20220226425A1 (RHYTHM PHARMACEUTICALS, published 2022).
# Bridges are numbered along the chain shown (N, C = ends). [ ]: non-standard residue; d: D form. Pen = CC(C)(S)[C@H](N)C(=O)O; hCys = N[C@@H](CCS)C(=O)O; Dap = NC[C@H](N)C(=O)O
# B1: 001576C, Ac-Arg-(Glu-Gln-D-Phe-Arg-Trp-Dpr)-NH2 (peptide)
# peptide: Ac-REQ[dF]RW[Dap]-NH2
# modifications: lactam 2-7
# SMILES: CC(=O)N[C@@H](CCCNC(=N)N)C(=O)N[C@H]1CCC(=O)NC[C@@H](C(N)=O)NC(=O)[C@H](Cc2c[nH]c3ccccc23)NC(=O)[C@H](CCCNC(=N)N)NC(=O)[C@@H](Cc2ccccc2)NC(=O)[C@H](CCC(N)=O)NC1=O
# B2: 001556C, Ac-Arg-(hCys-Ser-D-Phe-Arg-Trp-Pen)-NH2 (peptide)
# peptide: Ac-R[hCys]S[dF]RW[Pen]-NH2
# modifications: disulfide 2-7
# SMILES: CC(=O)N[C@@H](CCCNC(=N)N)C(=O)N[C@H]1CCSSC(C)(C)[C@@H](C(N)=O)NC(=O)[C@H](Cc2c[nH]c3ccccc23)NC(=O)[C@H](CCCNC(=N)N)NC(=O)[C@@H](Cc2ccccc2)NC(=O)[C@H](CO)NC1=O
# B3: 001555C, Ac-Arg-(hCys-Gln-D-Phe-Arg-Trp-Pen)-NH2 (peptide)
# peptide: Ac-R[hCys]Q[dF]RW[Pen]-NH2
# modifications: disulfide 2-7
# B4: 001554C, Ac-Arg-(hCys-Asn-D-Phe-Arg-Trp-Pen)-NH2 (peptide)
# peptide: Ac-R[hCys]N[dF]RW[Pen]-NH2
# modifications: disulfide 2-7
# B5: 001574C, Ac-Arg-(hCys-Thr-D-Phe-Arg-Trp-Pen)-NH2 (peptide)
# peptide: Ac-R[hCys]T[dF]RW[Pen]-NH2
# modifications: disulfide 2-7
# SMILES: CC(=O)N[C@@H](CCCNC(=N)N)C(=O)N[C@H]1CCSSC(C)(C)[C@@H](C(N)=O)NC(=O)[C@H](Cc2c[nH]c3ccccc23)NC(=O)[C@H](CCCNC(=N)N)NC(=O)[C@@H](Cc2ccccc2)NC(=O)[C@H]([C@@H](C)O)NC1=O
# Biological target: melanocortin-4 receptor (human, UniProt P32245 1-332)
# Sequence (P32245 whole entry): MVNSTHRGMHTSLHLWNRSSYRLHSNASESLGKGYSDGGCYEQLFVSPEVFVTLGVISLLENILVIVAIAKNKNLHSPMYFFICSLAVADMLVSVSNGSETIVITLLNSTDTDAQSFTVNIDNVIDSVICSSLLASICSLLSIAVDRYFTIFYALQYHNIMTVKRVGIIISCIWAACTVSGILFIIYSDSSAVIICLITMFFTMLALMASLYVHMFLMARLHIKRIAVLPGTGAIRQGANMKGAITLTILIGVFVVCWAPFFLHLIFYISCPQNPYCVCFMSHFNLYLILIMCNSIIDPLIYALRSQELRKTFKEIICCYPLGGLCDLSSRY
# Assay: cell-based or functional assay
row,"EC-50 (nM), cAMP accumulation [nM]",Binder
1,0.66,B1
2,1.86,B2
3,0.19,B3
4,1.6,B4
5,1.11,B5

# Biological target: melanocortin 1 receptor (human, UniProt Q01726 1-317)
# Sequence (Q01726 whole entry): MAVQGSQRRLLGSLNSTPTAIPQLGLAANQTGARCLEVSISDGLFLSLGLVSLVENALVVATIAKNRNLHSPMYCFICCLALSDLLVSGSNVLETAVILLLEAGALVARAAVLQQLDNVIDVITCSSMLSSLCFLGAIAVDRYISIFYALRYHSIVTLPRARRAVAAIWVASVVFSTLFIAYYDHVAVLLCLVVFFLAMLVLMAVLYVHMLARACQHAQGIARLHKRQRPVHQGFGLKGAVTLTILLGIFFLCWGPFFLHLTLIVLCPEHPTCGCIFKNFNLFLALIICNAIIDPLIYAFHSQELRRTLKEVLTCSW
# Assay: cell-based or functional assay
row,"EC-50 (nM), cAMP accumulation [nM]",Binder
1,23.6,B1
2,229,B2
3,47.5,B3
4,235,B4
5,516,B5

# Biological target: melanocortin 3 receptor (human, UniProt P41968 1-323)
# Sequence (P41968 whole entry): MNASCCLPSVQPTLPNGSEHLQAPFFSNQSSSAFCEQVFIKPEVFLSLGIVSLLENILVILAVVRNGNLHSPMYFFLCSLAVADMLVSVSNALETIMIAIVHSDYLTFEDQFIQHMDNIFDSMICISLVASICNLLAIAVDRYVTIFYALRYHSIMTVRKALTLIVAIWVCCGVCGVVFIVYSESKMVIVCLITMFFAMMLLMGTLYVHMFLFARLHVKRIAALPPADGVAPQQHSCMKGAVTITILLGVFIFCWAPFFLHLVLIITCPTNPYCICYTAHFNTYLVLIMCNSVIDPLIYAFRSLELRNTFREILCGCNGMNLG
# Assay: cell-based or functional assay
"EC-50 (nM), cAMP accumulation [nM]",Selectivity Ratio MC4R/MC3R (of EC-50 values),Binder
1.16,1.75,B1
> 3000,> 1620,B2
0.52,2.68,B3
> 3000,> 1870,B4
> 3000,> 2710,B5

# Biological target: melanocortin 5 receptor (human, UniProt P33032 1-325)
# Sequence (P33032 whole entry): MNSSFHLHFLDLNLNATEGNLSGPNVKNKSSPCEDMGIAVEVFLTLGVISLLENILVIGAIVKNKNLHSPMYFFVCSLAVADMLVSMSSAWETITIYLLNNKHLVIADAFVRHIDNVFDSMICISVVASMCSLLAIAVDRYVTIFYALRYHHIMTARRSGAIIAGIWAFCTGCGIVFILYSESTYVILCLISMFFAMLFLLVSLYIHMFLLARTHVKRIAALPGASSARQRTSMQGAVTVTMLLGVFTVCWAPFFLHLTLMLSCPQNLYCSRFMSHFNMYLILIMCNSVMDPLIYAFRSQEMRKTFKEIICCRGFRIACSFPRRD
# Assay: cell-based or functional assay
row,"EC-50 (nM), cAMP accumulation [nM]",Binder
1,67.3,B1
2,1700,B2
3,124,B3
4,735,B4
5,2050,B5
